Results: article PMC13324253 (NPJ Vaccines, 2026)
Where no end group is shown, it is not given here.

T1: major repeat peptide P29 (NANPNANPNANPNAN) (Plasmodium falciparum, also: biotin, end not given here)
T1 construct: major repeat 15-mer peptide of PfCSP; Biotinylated, held on streptavidin-coated plates in the ELISA; Probably a synthetic peptide (surmise)
T1 chain: NANPNANPNANPNAN

T2: junctional peptide P21 (NPDPNANPNVDPNAN) (Plasmodium falciparum, also: biotin, end not given here)
T2 construct: junctional 15-mer peptide of PfCSP; Biotinylated, held on streptavidin-coated plates in the ELISA; Probably a synthetic peptide (surmise); also called peptide 21
T2 chain: NPDPNANPNVDPNAN


What was measured:
Assay in all cases: ELISA; biotinylated P21 or P29 (2 ug/ml) on streptavidin-coated plates, PfCSP (2 ug/ml) coated on high-binding plates; 100 ul RATPIg supernatant, 1 h at room temperature; peroxidase goat anti-mouse IgG, OD450
Details in all cases: one partner purified
[1] = target: T1, major repeat peptide P29 …
[2] = target: T2, junctional peptide P21 (NPDPNANPNVDPNAN)
[3] = target: T3, Plasmodium falciparum circumsporozoite protein (PfCSP), full-length (Plasmodium falciparum, 3D7 (strain not …, UniProt Q7K740))
T3 construct: Plasmodium falciparum circumsporozoite protein, called full-length; recombinant 'full-length' PfCSP may lack the signal peptide and the GPI anchor signal (surmise); also called flCSP
T3 sequence (Q7K740 19-374): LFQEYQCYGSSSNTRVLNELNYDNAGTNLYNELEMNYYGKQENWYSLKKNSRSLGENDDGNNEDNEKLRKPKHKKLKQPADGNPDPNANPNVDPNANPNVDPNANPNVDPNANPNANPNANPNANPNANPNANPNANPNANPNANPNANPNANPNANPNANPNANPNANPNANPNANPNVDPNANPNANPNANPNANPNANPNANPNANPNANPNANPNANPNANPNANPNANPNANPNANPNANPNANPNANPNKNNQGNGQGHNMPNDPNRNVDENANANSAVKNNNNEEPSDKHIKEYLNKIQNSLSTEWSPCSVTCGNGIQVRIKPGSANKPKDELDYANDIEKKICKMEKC

Row | Binder | binding result [1] | binding result [2] | binding result [3]
1 | one strong P29-binding antibody of R21-immunized mouse 5116 (antibody, V domains shown, Expressed IgG from a single sorted B cell; source: Expi293, transfected with RATP-Ig cassettes, in culture supernatant) VH: QVQLQQSGAELARPGASVKLSCKASGYTFTSYAISWVKQRTGQGLEWIGEIYPRSGNIYYNEKFKGKATLTADKSSSTAYMELRSLTSEDSAVYFCARRGDVYFGGYWGQGTTLTVSS VL: DIVMTQSHKFMSTSVGDRVIITCKASQDVGTAVVWYQQKPGQSPKLLIYWASTRHTGVPDRFTGSGSGTDFTLTISNVQSEDLADYFCQQYNSYPLTFGAGTKLELK | binds |  | 
2 | P21/P29 double binder of mouse 5147 (PADRE-LuS-3T-immunized mouse) (antibody, V domains shown, Expressed IgG from a single sorted B cell; source: Expi293, transfected with RATP-Ig cassettes, in culture supernatant) VH: DVQLQESGPGLVKPSQSLSLTCSVTGYSITSGYYWNWIRQFPGNKLEWMGYISYDGSNNYNPSLKNRISITRDTSKNQFFLKLNSVTTEDTATYYCARDDYDGFDYWGQGTTLTVSS VL: DIQMTQSPSSLSASLGGKVTITCKASQDINKYIAWYQHKPGKGPRLLIHYTSTLQPGIPSRFSGSGSGRDYSFSISNLEPEDIATYYCLQYDNLWTFGGGTKLEIK | binds | binds | 
3 | one strong PfCSP-binding antibody of R21-immunized mouse 5116 (antibody, V domains shown, Expressed IgG from a single sorted B cell; source: Expi293, transfected with RATP-Ig cassettes, in culture supernatant) VH: QIQLLQSGPELVKPGASVRISCKASGYTLTDHYINWVKQRPGQGLEWIGWIYPGSAEIKFNEKFKGKASLTVDTSSSTAYMQLSSLTSEDSAVYFCARSGYGGLDYWGQGSTLTVSS VL: DLGMTQSHKFMSTSVGDRVTITCKASQDVGTAVAWYQQKPGQSPKLLIYWASTRHTGVPDRFTGSGSGTDFTLTITNVQSEDLADYFCQQFTIYPWTFGGGTKLEIK |  |  | binds
